T1: Human IL-3Rα/CD123蛋白 (human, UniProt P26951 19-305, limits assumed)
T1 construct: Soluble antigen in the SPR mobile phase
T1 sequence (looked up): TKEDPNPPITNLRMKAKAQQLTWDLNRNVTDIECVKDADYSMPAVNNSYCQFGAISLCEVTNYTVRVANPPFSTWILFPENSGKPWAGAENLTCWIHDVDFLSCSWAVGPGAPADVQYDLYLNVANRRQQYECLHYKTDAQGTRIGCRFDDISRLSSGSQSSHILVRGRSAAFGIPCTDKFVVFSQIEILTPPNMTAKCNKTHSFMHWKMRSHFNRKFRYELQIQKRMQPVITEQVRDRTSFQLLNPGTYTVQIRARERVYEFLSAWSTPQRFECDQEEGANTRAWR


Biological target: T1, Human IL-3Rα/CD123蛋白
Assay: SPR (Biacore), antibody immobilised on the chip, antigen in the mobile phase

Row | Binder | Kd | koff | kon
1 | CD123-9 VHH-mIgG2a Fc纳米抗体 (Fc fusion, also called 抗CD123 VHH抗体CD123-9; CD123-9抗体; not shown: mouse IgG2a Fc tag from vector C-4pCP.Stuffer-mCg2a-FC) EVQLVESGGGLVQPGGSLRLSCAASGFTFSSYDMSWVRQAPGKGLEWVSHIKPGPVGTDYTDSVKGRFTISRDNAKNTLYLQMDSLKTEDTAVYYCARGSRYSWNLDGPLRGQGTQVTVSS | 0.0466 nM | 1.42e-05 s⁻¹ | 305000 M⁻¹ s⁻¹
2 | CD123-12 VHH-mIgG2a Fc纳米抗体 (Fc fusion, also called 抗CD123 VHH抗体CD123-12; CD123-12抗体; not shown: mouse IgG2a Fc tag from vector C-4pCP.Stuffer-mCg2a-FC) EVQLVESGGDLVQPGGSLRLSCAASGFTFSSYDMSWVRQAPGKGLEWVSHIKPGPVGTDYTDSVKGRFTISRDNAKNTLYLQMDSLKTEDTAVYYCARGSRYSWNLDGPLRGQGTQVTVSS | 0.0551 nM | 1.62e-05 s⁻¹ | 295000 M⁻¹ s⁻¹

Reference: patent publication CN112480258A (HUADAO SHANGHAI BIOMEDICAL CO LTD, dated 2021)
